We go through 20 molecules from patent US20250163186A1 (PHYLAXIS BIOSCIENCE, published 2025).

First the molecules themselves.
B1: 8G10 (VHH)
VHH: EVQLLESGGGEVQPGGSLRLSCVASGLTFSSYSMGWLRQAPGKEREFVGLSGSSSTSTYYAESVKGRFTISRDNAKNTVYLQMTSLRAEDTAVYYCAARRLLSTYWSDRSWDFWGQGTLVTVEP
notes: also called hzB10v40 VHH, CDR1 site 8 N to S
B2: 10E3 (VHH)
VHH: EVQLLESGGGEVQPGGSLRLSCVASGLTFSSYNMSWLRQAPGKEREFVGLSGSSSTSTYYAESVKGRFTISRDNAKNTVYLQMTSLRAEDTAVYYCAARRLLSTYWSDRSWDFWGQGTLVTVEP
notes: also called hzB10v40 VHH, CDR1 site 10 G to S
B3: 35G3 (VHH)
VHH: EVQLLESGGGEVQPGGSLRLSCVASGLTFSSYNMGWLRQAPGKEREFVGLSGSSSTSTYYAESVKGRFTISRDNAKNTVYLQMTSLRAEDTAVYYCAARRLLSRYWSDRSWDFWGQGTLVTVEP
B4: 32F11 (VHH)
VHH: EVQLLESGGGEVQPGGSLRLSCVASGLTFSSYNMGWLRQAPGKEREFVGLSGSSSTSTYYAESVKGRFTISRDNAKNTVYLQMTSLRAEDTAVYYCAARRRLSTYWSDRSWDFWGQGTLVTVEP
B5: 9G9 (VHH)
VHH: EVQLLESGGGEVQPGGSLRLSCVASGLTFSSYNTGWLRQAPGKEREFVGLSGSSSTSTYYAESVKGRFTISRDNAKNTVYLQMTSLRAEDTAVYYCAARRLLSTYWSDRSWDFWGQGTLVTVEP
notes: also called hzB10v40 VHH, CDR1 site 9 M to T
B6: 9E8 (VHH)
VHH: EVQLLESGGGEVQPGGSLRLSCVASGLTFSSYNLGWLRQAPGKEREFVGLSGSSSTSTYYAESVKGRFTISRDNAKNTVYLQMTSLRAEDTAVYYCAARRLLSTYWSDRSWDFWGQGTLVTVEP
notes: also called hzB10v40 VHH, CDR1 site 9 M to L
B7: 44A11 (VHH)
VHH: EVQLLESGGGEVQPGGSLRLSCVASGLTFSSYNMGWLRQAPGKEREFVGLSGSSSTSTYYAESVKGRFTISRDNAKNTVYLQMTSLRAEDTAVYYCAARRLLSTYWSDRSWDKWGQGTLVTVEP
B8: 9D1 (VHH)
VHH: EVQLLESGGGEVQPGGSLRLSCVASGLTFSSYNIGWLRQAPGKEREFVGLSGSSSTSTYYAESVKGRFTISRDNAKNTVYLQMTSLRAEDTAVYYCAARRLLSTYWSDRSWDFWGQGTLVTVEP
notes: also called hzB10v40 VHH, CDR1 site 9 M to I
B9: 44C1 (VHH)
VHH: EVQLLESGGGEVQPGGSLRLSCVASGLTFSSYNMGWLRQAPGKEREFVGLSGSSSTSTYYAESVKGRFTISRDNAKNTVYLQMTSLRAEDTAVYYCAARRLLSTYWSDRSWDMWGQGTLVTVEP
B10: 9H9 (VHH)
VHH: EVQLLESGGGEVQPGGSLRLSCVASGLTFSSYNFGWLRQAPGKEREFVGLSGSSSTSTYYAESVKGRFTISRDNAKNTVYLQMTSLRAEDTAVYYCAARRLLSTYWSDRSWDFWGQGTLVTVEP
notes: also called hzB10v40 VHH, CDR1 site 9 M to F
B11: 9F1 (VHH)
VHH: EVQLLESGGGEVQPGGSLRLSCVASGLTFSSYNSGWLRQAPGKEREFVGLSGSSSTSTYYAESVKGRFTISRDNAKNTVYLQMTSLRAEDTAVYYCAARRLLSTYWSDRSWDFWGQGTLVTVEP
notes: also called hzB10v40 VHH, CDR1 site 9 M to S
B12: 8H11 (VHH)
VHH: EVQLLESGGGEVQPGGSLRLSCVASGLTFSSYRMGWLRQAPGKEREFVGLSGSSSTSTYYAESVKGRFTISRDNAKNTVYLQMTSLRAEDTAVYYCAARRLLSTYWSDRSWDFWGQGTLVTVEP
notes: also called hzB10v40 VHH, CDR1 site 8 N to R
B13: 39E11 (VHH)
VHH: EVQLLESGGGEVQPGGSLRLSCVASGLTFSSYNMGWLRQAPGKEREFVGLSGSSSTSTYYAESVKGRFTISRDNAKNTVYLQMTSLRAEDTAVYYCAARRLLSTYWSHRSWDFWGQGTLVTVEP
B14: 10G10 (VHH)
VHH: EVQLLESGGGEVQPGGSLRLSCVASGLTFSSYNMAWLRQAPGKEREFVGLSGSSSTSTYYAESVKGRFTISRDNAKNTVYLQMTSLRAEDTAVYYCAARRLLSTYWSDRSWDFWGQGTLVTVEP
notes: also called hzB10v40 VHH, CDR1 site 10 G to A
B15: 39C11 (VHH)
VHH: EVQLLESGGGEVQPGGSLRLSCVASGLTFSSYNMGWLRQAPGKEREFVGLSGSSSTSTYYAESVKGRFTISRDNAKNTVYLQMTSLRAEDTAVYYCAARRLLSTYWSMRSWDFWGQGTLVTVEP
B16: 33-2C4 (VHH)
VHH: EVQLLESGGGEVQPGGSLRLSCVASGLTFSSYNMGWLRQAPGKEREFVGLSGSSSTSTYYAESVKGRFTISRDNAKNTVYLQMTSLRAEDTAVYYCAARRLFSTYWSDRSWDFWGQGTLVTVEP
B17: 9B1 (VHH)
VHH: EVQLLESGGGEVQPGGSLRLSCVASGLTFSSYNVGWLRQAPGKEREFVGLSGSSSTSTYYAESVKGRFTISRDNAKNTVYLQMTSLRAEDTAVYYCAARRLLSTYWSDRSWDFWGQGTLVTVEP
notes: also called hzB10v40 VHH, CDR1 site 9 M to V
B18: 28H1 (VHH)
VHH: EVQLLESGGGEVQPGGSLRLSCVASGLTFSSYNMGWLRQAPGKEREFVGLSGSSSTSTYYAESVKGRFTISRDNAKNTVYLQMTSLRAEDTAVYYCSARRLLSTYWSDRSWDFWGQGTLVTVEP
B19: 33-2C5 (VHH)
VHH: EVQLLESGGGEVQPGGSLRLSCVASGLTFSSYNMGWLRQAPGKEREFVGLSGSSSTSTYYAESVKGRFTISRDNAKNTVYLQMTSLRAEDTAVYYCAARRLHSTYWSDRSWDFWGQGTLVTVEP
B20: 33-2A2 (VHH)
VHH: EVQLLESGGGEVQPGGSLRLSCVASGLTFSSYNMGWLRQAPGKEREFVGLSGSSSTSTYYAESVKGRFTISRDNAKNTVYLQMTSLRAEDTAVYYCAARRLKSTYWSDRSWDFWGQGTLVTVEP

The target of the experiment is T1, human IgE (human, UniProt P01854 1-428).
T1 construct: written under the same molecule; also called IgE (Abcam ab65866); soluble IgE
T1 sequence (P01854 other isoform, or with tags, fused parts or gaps limits assumed, form in doubt): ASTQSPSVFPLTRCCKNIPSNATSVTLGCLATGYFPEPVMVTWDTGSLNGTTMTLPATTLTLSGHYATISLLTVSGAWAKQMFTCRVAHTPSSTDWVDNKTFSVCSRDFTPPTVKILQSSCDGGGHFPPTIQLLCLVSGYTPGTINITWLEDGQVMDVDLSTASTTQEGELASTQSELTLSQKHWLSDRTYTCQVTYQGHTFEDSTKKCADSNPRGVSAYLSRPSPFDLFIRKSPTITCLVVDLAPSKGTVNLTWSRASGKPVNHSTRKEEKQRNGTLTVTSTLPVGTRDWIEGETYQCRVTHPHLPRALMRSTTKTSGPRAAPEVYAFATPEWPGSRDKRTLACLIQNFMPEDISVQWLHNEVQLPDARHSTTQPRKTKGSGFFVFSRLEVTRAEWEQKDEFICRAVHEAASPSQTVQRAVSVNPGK
Briefly: ELISA, clone lysate on IgE-coated plate. The text has this: Each amino acid in CDR1 (SEQ ID NO:3), CDR2 (SEQ ID NO:68), and CDR3 (SEQ ID NO:74) was randomly replaced such that the 20 natural amino acids would likely all have been sampled at every position. The expression vector for the VHH containing the mutagenized CDRs was then transfected into E. coli, and at least 96 clones were randomly chosen for each position mutated in each CDR. This gives likely coverage of all potential mutations at each position since the probability to get any given amino acid at that position is 5%. […] The heat maps represent the relative binding for each clone determined by the range of OD values from the ELISA background to WT CDR binding (FIGS. 16A-16C). Site numbering for each residue tested is indicated by the inset tables in FIGS. 16A-16C.
For orientation: An ELISA detects its analyte on a solid surface through an enzyme-linked reagent.
For B1, the “Confirm OD450 Duplicate1” value came to 0.534, the “Confirm OD450 Duplicate2” value was 0.552 and the “R1 Screening OD450” value came to 0.917.

B2: the “Confirm OD450 Duplicate1” value came to 0.508, the “Confirm OD450 Duplicate2” value is 0.494 and the “R1 Screening OD450” value was 0.846.

Regarding B3, the “Confirm OD450 Duplicate1” value was 0.593, the “Confirm OD450 Duplicate2” value amounted to 0.612 and the “R1 Screening OD450” value came out at 1.07.

Consider B4, for which the “Confirm OD450 Duplicate1” value turned out to be 0.557, the “Confirm OD450 Duplicate2” value was 0.557 and the “R1 Screening OD450” value was determined as 0.924.

Consider B5, for which the “Confirm OD450 Duplicate1” value came out at 0.535, the “Confirm OD450 Duplicate2” value turned out to be 0.524 and the “R1 Screening OD450” value is 0.886.

Turning to B6, the “Confirm OD450 Duplicate1” value amounted to 0.522, the “Confirm OD450 Duplicate2” value is 0.539 and the “R1 Screening OD450” value was 0.897.

On to B7, for which the “Confirm OD450 Duplicate1” value is 0.661, the “Confirm OD450 Duplicate2” value was found to be 0.654 and the “R1 Screening OD450” value was 1.14.

As for B8, the “Confirm OD450 Duplicate1” value came to 0.435, the “Confirm OD450 Duplicate2” value is 0.442 and the “R1 Screening OD450” value stood at 0.905.

Regarding B9, the “Confirm OD450 Duplicate1” value turned out to be 0.556, the “Confirm OD450 Duplicate2” value came to 0.537 and the “R1 Screening OD450” value came out at 1.06.

Consider B10, for which the “Confirm OD450 Duplicate1” value worked out at 0.49, the “Confirm OD450 Duplicate2” value was determined as 0.5 and the “R1 Screening OD450” value is 0.88.

For the molecule B11, the “Confirm OD450 Duplicate1” value was determined as 0.498, the “Confirm OD450 Duplicate2” value is 0.467 and the “R1 Screening OD450” value is 0.921.

Turning to B12, the “Confirm OD450 Duplicate1” value worked out at 0.571, the “Confirm OD450 Duplicate2” value was 0.568 and the “R1 Screening OD450” value came to 0.97.

For the molecule B13, the “Confirm OD450 Duplicate1” value was determined as 0.55, the “Confirm OD450 Duplicate2” value came to 0.534 and the “R1 Screening OD450” value was 1.01.

For B14, the “Confirm OD450 Duplicate1” value amounted to 0.484, the “Confirm OD450 Duplicate2” value is 0.479 and the “R1 Screening OD450” value came out at 0.966.

Regarding B15, the “Confirm OD450 Duplicate1” value turned out to be 0.562, the “Confirm OD450 Duplicate2” value was 0.585 and the “R1 Screening OD450” value came out at 1.

As for B16, the “Confirm OD450 Duplicate1” value came out at 0.514, the “Confirm OD450 Duplicate2” value turned out to be 0.523 and the “R1 Screening OD450” value came to 1.

On to B17, for which the “Confirm OD450 Duplicate1” value came to 0.452, the “Confirm OD450 Duplicate2” value was 0.454 and the “R1 Screening OD450” value worked out at 0.879.

On to B18, for which the “Confirm OD450 Duplicate1” value came to 0.471, the “Confirm OD450 Duplicate2” value came to 0.492 and the “R1 Screening OD450” value turned out to be 0.927.

Take B19: the “Confirm OD450 Duplicate1” value is 0.525, the “Confirm OD450 Duplicate2” value turned out to be 0.573 and the “R1 Screening OD450” value came to 1.01.

In the case of B20, the “Confirm OD450 Duplicate1” value came out at 0.557, the “Confirm OD450 Duplicate2” value was 0.564 and the “R1 Screening OD450” value turned out to be 1.01.
